Target: T1, 金黄色葡萄球菌肠毒素B (Staphylococcus aureus, UniProt P01552 28-266)
T1 construct: Coated at 500 ng/mL
T1 sequence: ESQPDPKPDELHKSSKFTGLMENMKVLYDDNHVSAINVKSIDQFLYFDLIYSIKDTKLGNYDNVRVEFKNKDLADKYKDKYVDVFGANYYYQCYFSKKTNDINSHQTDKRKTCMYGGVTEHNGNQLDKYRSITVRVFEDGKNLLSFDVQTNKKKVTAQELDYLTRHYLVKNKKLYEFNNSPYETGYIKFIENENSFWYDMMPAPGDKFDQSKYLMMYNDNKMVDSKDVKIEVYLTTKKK
Experiment: ELISA, coated antigen, HRP-conjugated nanobody, OD450

B1: 抗金黄色葡萄球菌肠毒素A纳米抗体Anti-SEA-Nb A150 (VHH)
VHH: ESGGGLVQAGGSLRLSCTTSGFTFDDYAMGWFRQAPGKEREGVSCINWNGANAYYADSVKGRFTISRDNNKNTLYLQMNSLKPEDTALYYCAAGRMPILDDHGYVYWGQGTQVTVS
Q: Does B1 bind?
A: no binding (tested: 500ng/mL (coated))

Reference: patent CN113185610A (UNIV NORTHWEST A&F, dated 2021)
